Measurements reported in US20050066376.

Tested on: T1, Minos transposase (fly cDNA ILMi) (Drosophila hydei)
T1 sequence: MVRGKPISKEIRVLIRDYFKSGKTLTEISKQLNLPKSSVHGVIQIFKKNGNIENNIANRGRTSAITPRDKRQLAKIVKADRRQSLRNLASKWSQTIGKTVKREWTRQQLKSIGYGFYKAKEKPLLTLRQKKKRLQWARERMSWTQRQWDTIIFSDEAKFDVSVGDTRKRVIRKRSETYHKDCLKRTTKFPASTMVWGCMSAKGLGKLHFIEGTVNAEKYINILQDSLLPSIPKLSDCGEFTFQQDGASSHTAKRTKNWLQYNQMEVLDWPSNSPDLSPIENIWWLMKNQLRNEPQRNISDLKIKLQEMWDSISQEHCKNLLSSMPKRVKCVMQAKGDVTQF
Assay: cell_activity
Conditions: germ-line transposition frequency in mouse, 12 events in 146 transposon-positive progeny; TA target site duplication

Substance: Minos transposon MiCMVGFP (Minos inverted repeats flanking CMV-GFP)
- activity: 8.2%
